T1: GhGT26 (GST fusion) (Gossypium hirsutum, UniProt A0A8J9W0A6 1-391)
T1 sequence: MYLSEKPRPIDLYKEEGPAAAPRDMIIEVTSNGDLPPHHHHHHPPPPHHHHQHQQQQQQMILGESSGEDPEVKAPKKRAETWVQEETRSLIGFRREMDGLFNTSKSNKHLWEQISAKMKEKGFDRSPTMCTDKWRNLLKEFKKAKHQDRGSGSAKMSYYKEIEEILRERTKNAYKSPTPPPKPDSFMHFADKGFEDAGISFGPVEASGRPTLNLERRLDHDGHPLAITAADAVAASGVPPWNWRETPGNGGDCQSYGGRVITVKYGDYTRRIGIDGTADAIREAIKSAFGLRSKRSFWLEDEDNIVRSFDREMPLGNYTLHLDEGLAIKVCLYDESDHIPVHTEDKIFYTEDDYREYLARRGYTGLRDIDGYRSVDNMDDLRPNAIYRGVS

B1: Site1-type (GT-3a) (dsDNA)
DNA 1: GCGTTACCGTTACCGTTACCAA
DNA 2: TTGGTAACGGTAACGGTAACGC
B2: MRE3 (dsDNA)
DNA 1: TCTAACCTACTAACCTACTAACCTACCA
DNA 2: TGGTAGGTTAGTAGGTTAGTAGGTTAGA
B3: MRE4 (dsDNA)
DNA 1: TATCTCACCTCTCACCTCTCACCGT
DNA 2: ACGGTGAGAGGTGAGAGGTGAGATA

The binders below were run against T1, GhGT26 (GST fusion) (assay: EMSA; signal dramatically reduced by unlabeled competitor; Oligos annealed in 50 mM NaCl (70 °C 5 min, then room temperature); EMSA binding buffer, pH and temperature not given (as in ref. 48)). Conditions: protein: recombinant; tags: GST (pGEX6p-1); label: digoxigenin; blunt (reverse complement stated).

Binding result, binds:
B1
B2
B3
